Results taken from US20250186597A1 (BRIGHT PEAK THERAPEUTICS, published 2025).

B1: IL-18 polypeptide C157 (V11I, C38A, K53A, C76A, C127A, D132A) (ligand)
chain: YFGKLESKLSIIRNLNDQVLFIDQGNRPLFEDMTDSDARDNAPRTIFIISMYADSQPRGMAVTISVKCEKISTLSAENKIISFKEMNPPDNIKDTKSDIIFFQRSVPGHDNKMQFESSSYEGYFLAAEKERALFKLILKKEDELGDRSIMFTVQNED
B2: IL-18 polypeptide C158 (V11I, C38A, K53A, C76A, G108A, C127A) (ligand)
chain: YFGKLESKLSIIRNLNDQVLFIDQGNRPLFEDMTDSDARDNAPRTIFIISMYADSQPRGMAVTISVKCEKISTLSAENKIISFKEMNPPDNIKDTKSDIIFFQRSVPAHDNKMQFESSSYEGYFLAAEKERDLFKLILKKEDELGDRSIMFTVQNED
B3: IL-18 polypeptide C159 (V11I, C38A, K53A, C76A, H109A, C127A) (ligand)
chain: YFGKLESKLSIIRNLNDQVLFIDQGNRPLFEDMTDSDARDNAPRTIFIISMYADSQPRGMAVTISVKCEKISTLSAENKIISFKEMNPPDNIKDTKSDIIFFQRSVPGADNKMQFESSSYEGYFLAAEKERDLFKLILKKEDELGDRSIMFTVQNED
B4: IL-18 polypeptide C160 (V11I, C38A, K53A, C76A, D110A, C127A) (ligand)
chain: YFGKLESKLSIIRNLNDQVLFIDQGNRPLFEDMTDSDARDNAPRTIFIISMYADSQPRGMAVTISVKCEKISTLSAENKIISFKEMNPPDNIKDTKSDIIFFQRSVPGHANKMQFESSSYEGYFLAAEKERDLFKLILKKEDELGDRSIMFTVQNED
B5: IL-18 polypeptide C161 (K8R, V11I, C38A, C76A, Q103E, C127A) (ligand)
chain: YFGKLESRLSIIRNLNDQVLFIDQGNRPLFEDMTDSDARDNAPRTIFIISMYKDSQPRGMAVTISVKCEKISTLSAENKIISFKEMNPPDNIKDTKSDIIFFERSVPGHDNKMQFESSSYEGYFLAAEKERDLFKLILKKEDELGDRSIMFTVQNED
B6: IL-18 polypeptide C162 (K8E, V11I, C38A, C76A, Q103R, C127A) (ligand)
chain: YFGKLESELSIIRNLNDQVLFIDQGNRPLFEDMTDSDARDNAPRTIFIISMYKDSQPRGMAVTISVKCEKISTLSAENKIISFKEMNPPDNIKDTKSDIIFFRRSVPGHDNKMQFESSSYEGYFLAAEKERDLFKLILKKEDELGDRSIMFTVQNED
B7: IL-18 polypeptide C163 (V11I, C38A, C76A, Q103K, C127A) (ligand)
chain: YFGKLESKLSIIRNLNDQVLFIDQGNRPLFEDMTDSDARDNAPRTIFIISMYKDSQPRGMAVTISVKCEKISTLSAENKIISFKEMNPPDNIKDTKSDIIFFKRSVPGHDNKMQFESSSYEGYFLAAEKERDLFKLILKKEDELGDRSIMFTVQNED
B8: IL-18 polypeptide C164 (V11I, C38A, S55H, C76A, C127A) (ligand)
chain: YFGKLESKLSIIRNLNDQVLFIDQGNRPLFEDMTDSDARDNAPRTIFIISMYKDHQPRGMAVTISVKCEKISTLSAENKIISFKEMNPPDNIKDTKSDIIFFQRSVPGHDNKMQFESSSYEGYFLAAEKERDLFKLILKKEDELGDRSIMFTVQNED
B9: IL-18 polypeptide C165 (V11I, C38A, S55R, C76A, C127A) (ligand)
chain: YFGKLESKLSIIRNLNDQVLFIDQGNRPLFEDMTDSDARDNAPRTIFIISMYKDRQPRGMAVTISVKCEKISTLSAENKIISFKEMNPPDNIKDTKSDIIFFQRSVPGHDNKMQFESSSYEGYFLAAEKERDLFKLILKKEDELGDRSIMFTVQNED
B10: IL-18 polypeptide C166 (V11I, C38A, S55T, C76A, C127A) (ligand)
chain: YFGKLESKLSIIRNLNDQVLFIDQGNRPLFEDMTDSDARDNAPRTIFIISMYKDTQPRGMAVTISVKCEKISTLSAENKIISFKEMNPPDNIKDTKSDIIFFQRSVPGHDNKMQFESSSYEGYFLAAEKERDLFKLILKKEDELGDRSIMFTVQNED
B11: IL-18 polypeptide C167 (V11I, C38A, C76A, S105I, C127A) (ligand)
chain: YFGKLESKLSIIRNLNDQVLFIDQGNRPLFEDMTDSDARDNAPRTIFIISMYKDSQPRGMAVTISVKCEKISTLSAENKIISFKEMNPPDNIKDTKSDIIFFQRIVPGHDNKMQFESSSYEGYFLAAEKERDLFKLILKKEDELGDRSIMFTVQNED
B12: IL-18 polypeptide C168 (V11I, C38A, C76A, S105K, C127A) (ligand)
chain: YFGKLESKLSIIRNLNDQVLFIDQGNRPLFEDMTDSDARDNAPRTIFIISMYKDSQPRGMAVTISVKCEKISTLSAENKIISFKEMNPPDNIKDTKSDIIFFQRKVPGHDNKMQFESSSYEGYFLAAEKERDLFKLILKKEDELGDRSIMFTVQNED
B13: IL-18 polypeptide C174 (K8L, E6K, V11I, C38A, K53A, T63A, C76A, C127A) (ligand)
chain: YFGKLKSLLSIIRNLNDQVLFIDQGNRPLFEDMTDSDARDNAPRTIFIISMYADSQPRGMAVAISVKCEKISTLSAENKIISFKEMNPPDNIKDTKSDIIFFQRSVPGHDNKMQFESSSYEGYFLAAEKERDLFKLILKKEDELGDRSIMFTVQNED
B14: IL-18 polypeptide C176 (E6K, V11I, C38A, I49M, K53A, T63A, C76A, C127A) (ligand)
chain: YFGKLKSKLSIIRNLNDQVLFIDQGNRPLFEDMTDSDARDNAPRTIFIMSMYADSQPRGMAVAISVKCEKISTLSAENKIISFKEMNPPDNIKDTKSDIIFFQRSVPGHDNKMQFESSSYEGYFLAAEKERDLFKLILKKEDELGDRSIMFTVQNED
B15: IL-18 polypeptide C177 (E6K, V11I, C38A, I49R, K53A, T63A, C76A, C127A) (ligand)
chain: YFGKLKSKLSIIRNLNDQVLFIDQGNRPLFEDMTDSDARDNAPRTIFIRSMYADSQPRGMAVAISVKCEKISTLSAENKIISFKEMNPPDNIKDTKSDIIFFQRSVPGHDNKMQFESSSYEGYFLAAEKERDLFKLILKKEDELGDRSIMFTVQNED
B16: IL-18 polypeptide C178 (E6K, V11I, C38A, K53A, T63A, C76A, Q103R, C127A) (ligand)
chain: YFGKLKSKLSIIRNLNDQVLFIDQGNRPLFEDMTDSDARDNAPRTIFIISMYADSQPRGMAVAISVKCEKISTLSAENKIISFKEMNPPDNIKDTKSDIIFFRRSVPGHDNKMQFESSSYEGYFLAAEKERDLFKLILKKEDELGDRSIMFTVQNED
B17: IL-18 polypeptide C179 (E6K, K8E, V11I, C38A, K53A, T63A, C76A, Q103R, C127A) (ligand)
chain: YFGKLKSELSIIRNLNDQVLFIDQGNRPLFEDMTDSDARDNAPRTIFIISMYADSQPRGMAVAISVKCEKISTLSAENKIISFKEMNPPDNIKDTKSDIIFFRRSVPGHDNKMQFESSSYEGYFLAAEKERDLFKLILKKEDELGDRSIMFTVQNED
B18: IL-18 polypeptide C181 (E6K, V11I, C38A, K53A, T63A, C76A, C127A, V153E) (ligand)
chain: YFGKLKSKLSIIRNLNDQVLFIDQGNRPLFEDMTDSDARDNAPRTIFIISMYADSQPRGMAVAISVKCEKISTLSAENKIISFKEMNPPDNIKDTKSDIIFFQRSVPGHDNKMQFESSSYEGYFLAAEKERDLFKLILKKEDELGDRSIMFTEQNED
B19: IL-18 polypeptide C182 (E6K, V11I, C38A, K53A, T63A, C76A, C127A, V153Y) (ligand)
chain: YFGKLKSKLSIIRNLNDQVLFIDQGNRPLFEDMTDSDARDNAPRTIFIISMYADSQPRGMAVAISVKCEKISTLSAENKIISFKEMNPPDNIKDTKSDIIFFQRSVPGHDNKMQFESSSYEGYFLAAEKERDLFKLILKKEDELGDRSIMFTYQNED
B20: IL-18 polypeptide C183 (SEQ ID NO: 69; E6K, V11I, C38A, M51G, K53A, T63A, C76A, C127A) (ligand)
chain: YFGKLKSKLSIIRNLNDQVLFIDQGNRPLFEDMTDSDARDNAPRTIFIISGYADSQPRGMAVAISVKCEKISTLSAENKIISFKEMNPPDNIKDTKSDIIFFQRSVPGHDNKMQFESSSYEGYFLAAEKERDLFKLILKKEDELGDRSIMFTVQNED

Biological target: T1, IL-18R on HEK-Blue IL18R reporter cells (InvivoGen, #hkb-hmi118) (UniProt Q13478 19-541; O95256 20-599, limits assumed)
T1 sequence (looked up) 1: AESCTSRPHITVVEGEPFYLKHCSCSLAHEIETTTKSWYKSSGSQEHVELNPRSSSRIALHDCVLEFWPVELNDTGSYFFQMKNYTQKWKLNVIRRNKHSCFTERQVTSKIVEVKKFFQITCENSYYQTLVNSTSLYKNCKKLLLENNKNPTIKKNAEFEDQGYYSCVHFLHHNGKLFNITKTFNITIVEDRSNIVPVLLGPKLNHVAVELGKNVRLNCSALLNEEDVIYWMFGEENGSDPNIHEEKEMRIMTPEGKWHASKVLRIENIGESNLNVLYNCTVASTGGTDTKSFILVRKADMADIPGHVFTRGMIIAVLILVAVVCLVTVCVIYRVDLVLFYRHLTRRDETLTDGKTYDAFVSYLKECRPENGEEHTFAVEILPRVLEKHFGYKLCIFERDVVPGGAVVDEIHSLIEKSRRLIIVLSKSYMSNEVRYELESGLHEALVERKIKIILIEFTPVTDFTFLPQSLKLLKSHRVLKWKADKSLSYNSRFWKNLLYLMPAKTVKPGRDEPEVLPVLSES
T1 sequence (looked up) 2: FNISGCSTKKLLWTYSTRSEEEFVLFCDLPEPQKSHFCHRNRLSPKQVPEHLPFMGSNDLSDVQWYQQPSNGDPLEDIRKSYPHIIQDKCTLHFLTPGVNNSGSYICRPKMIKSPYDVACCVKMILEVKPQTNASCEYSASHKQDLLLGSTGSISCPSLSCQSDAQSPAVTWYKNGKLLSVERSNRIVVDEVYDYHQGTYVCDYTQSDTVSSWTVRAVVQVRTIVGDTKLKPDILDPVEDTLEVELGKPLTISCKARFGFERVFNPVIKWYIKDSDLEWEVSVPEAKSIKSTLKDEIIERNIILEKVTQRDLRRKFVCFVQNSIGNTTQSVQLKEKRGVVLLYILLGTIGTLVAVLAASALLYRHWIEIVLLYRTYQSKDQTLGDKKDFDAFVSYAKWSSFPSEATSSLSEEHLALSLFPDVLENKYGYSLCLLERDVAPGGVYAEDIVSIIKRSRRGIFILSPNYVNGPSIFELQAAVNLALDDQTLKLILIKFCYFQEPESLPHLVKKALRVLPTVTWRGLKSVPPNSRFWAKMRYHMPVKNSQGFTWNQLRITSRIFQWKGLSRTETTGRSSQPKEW
Test: cell-based or functional assay

Binder | EC50, HEK-Blue IL18R reporter assay [pM]
B1 | 1.95
B2 | 15.6
B3 | 19.5
B4 | 2.02
B5 | 2.01
B6 | 2.3
B7 | 1.5
B8 | 3.14
B9 | 1.91
B10 | 4.73
B11 | 5.37
B12 | 7.73
B13 | 0.29
B14 | 0.07
B15 | 0.04
B16 | 0.26
B17 | 0.4
B18 | 0.1
B19 | 0.08
B20 | 0.1
